For the series, the target named is T1, His-BaeR (Acinetobacter baumannii ATCC 17978) (UniProt A0ABX6CJ55).
T1 sequence: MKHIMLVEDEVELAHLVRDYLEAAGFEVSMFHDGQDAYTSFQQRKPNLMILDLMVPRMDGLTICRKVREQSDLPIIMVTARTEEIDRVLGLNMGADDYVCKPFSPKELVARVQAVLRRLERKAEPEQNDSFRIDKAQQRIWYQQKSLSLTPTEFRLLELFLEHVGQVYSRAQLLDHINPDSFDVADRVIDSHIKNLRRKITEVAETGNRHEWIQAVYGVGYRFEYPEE
Put plainly: EMSA. (In general: Mobility shift assays separate free from complexed probe on a gel.)

Drawing on publication PMC4498774, this text covers binding for two sequences.

Consider “GCCTTCACGTTTTAAATAATTTTCAATAATGTCGCCAATATCGTAGTCATCTTCTACCACAAGAATAACTTTATCTTGGCAATCAAAAGAAAAAGAATGATCAAACATAGAAAATCTGGCTATAGAAAGTGCTTCAACTCATCATACGCTAAATTATCCGTATTTCTCCACACTTACTCCACACTTTAGTGATTATCCCTACACACTCATCAAAAATAATACGAACATCAAAAACTCACTAGG (double strand) [adeA promoter region (243 bp)]”, for which the binding result was “no binding”.

Regarding “TTTCTGAGCAGCAGCAGCTTGCTGTTTCTCATCGGAGCCTTTGCTACAACCAACAAGCGCGATACTTGTTGCTAATGCGCAAGCAGTAAGGGCTGGTGCCCAAAGCTTAGCCGACATCATTGTTCCACCTCGTTTAGATAAAAT (double strand) [adeI promoter region (144 bp)]”, the binding result was “no binding”.
